# Test results reported in patent publication US20090202980A1 (CROSSBETA BIOSCIENCES B V, published 2009).
# T1: human factor XII (Hageman factor) (human, UniProt P00748 20-615)
# T1 construct: also called FXII; fXII
# T1 sequence (looked up): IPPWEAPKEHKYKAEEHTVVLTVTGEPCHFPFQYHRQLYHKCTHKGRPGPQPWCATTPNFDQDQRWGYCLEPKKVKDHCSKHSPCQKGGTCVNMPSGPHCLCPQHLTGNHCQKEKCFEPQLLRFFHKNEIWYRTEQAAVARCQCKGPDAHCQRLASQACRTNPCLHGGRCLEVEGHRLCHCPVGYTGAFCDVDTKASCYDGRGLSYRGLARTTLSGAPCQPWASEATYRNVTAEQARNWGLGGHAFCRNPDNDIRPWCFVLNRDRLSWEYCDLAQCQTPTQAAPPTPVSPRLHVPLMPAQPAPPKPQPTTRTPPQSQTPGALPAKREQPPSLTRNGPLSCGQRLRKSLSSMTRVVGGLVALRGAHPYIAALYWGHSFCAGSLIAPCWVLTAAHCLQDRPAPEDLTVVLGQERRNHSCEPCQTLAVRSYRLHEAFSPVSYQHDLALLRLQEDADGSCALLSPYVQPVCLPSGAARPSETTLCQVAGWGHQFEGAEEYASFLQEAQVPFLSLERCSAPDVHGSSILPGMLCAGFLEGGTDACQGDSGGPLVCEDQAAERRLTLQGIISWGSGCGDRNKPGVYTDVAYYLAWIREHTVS
# T2: tPA-F-EGF-GST (finger and EGF domains of human tPA with C-terminal GST tag) (human; Schistosoma japonicum, UniProt P00750 36-122)
# T2 construct: domain: F-EGF; also called F-EGF-tPA; not shown: vector residues and thrombin cleavage site; Schistosoma japonicum glutathion-S-transferase (GST) tag
# T2 sequence (looked up): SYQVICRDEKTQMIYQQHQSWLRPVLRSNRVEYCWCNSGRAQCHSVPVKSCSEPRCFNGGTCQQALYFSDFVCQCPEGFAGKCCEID
# T3: tPA K1-GST (kringle 1 domain of human tPA with C-terminal GST tag) (human; Schistosoma japonicum, UniProt P00750 123-210)
# T3 construct: domain: K1; not shown: vector residues and thrombin cleavage site; Schistosoma japonicum glutathion-S-transferase (GST) tag
# T3 sequence (looked up): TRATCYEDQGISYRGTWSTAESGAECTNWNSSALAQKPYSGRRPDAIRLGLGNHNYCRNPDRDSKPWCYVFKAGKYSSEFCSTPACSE
# B1: tPA EGF-GST (EGF domain of human tPA with C-terminal GST tag) (other, UniProt P00750 86-122, looked up)
# chain: CSEPRCFNGGTCQQALYFSDFVCQCPEGFAGKCCEID
# notes: domain: EGF; not shown: vector residues and thrombin cleavage site; Schistosoma japonicum glutathion-S-transferase (GST) tag
# B2: mouse non-amyloidogenic IAPP(20-29) core (ΔmIAPP) (peptide)
# peptide: SNNLGPVLPP
# notes: Non-amyloid negative control peptide; also called mΔIAPP; MΔIAPP
# B3: human islet amyloid polypeptide, full length (fl-hIAPP) (peptide)
# peptide: KCNTATCATQRLANFLVHSSNNFGAILSSTNVGSNTY
# B4: plasminogen (enzyme, UniProt P00747 20-810, looked up)
# chain: EPLDDYVNTQGASLFSVTKKQLGAGSIEECAAKCEEDEEFTCRAFQYHSKEQQCVIMAENRKSSIIIRMRDVVLFEKKVYLSECKTGNGKNYRGTMSKTKNGITCQKWSSTSPHRPRFSPATHPSEGLEENYCRNPDNDPQGPWCYTTDPEKRYDYCDILECEEECMHCSGENYDGKISKTMSGLECQAWDSQSPHAHGYIPSKFPNKNLKKNYCRNPDRELRPWCFTTDPNKRWELCDIPRCTTPPPSSGPTYQCLKGTGENYRGNVAVTVSGHTCQHWSAQTPHTHNRTPENFPCKNLDENYCRNPDGKRAPWCHTTNSQVRWEYCKIPSCDSSPVSTEQLAPTAPPELTPVVQDCYHGDGQSYRGTSSTTTTGKKCQSWSSMTPHRHQKTPENYPNAGLTMNYCRNPDADKGPWCFTTDPSVRWEYCNLKKCSGTEASVVAPPPVVLLPDVETPSEEDCMFGNGKGYRGKRATTVTGTPCQDWAAQEPHRHSIFTPETNPRAGLEKNYCRNPDGDVGGPWCYTTNPRKLYDYCDVPQCAAPSFDCGKPQVEPKKCPGRVVGGCVAHPHSWPWQVSLRTRFGMHFCGGTLISPEWVLTAAHCLEKSPRPSSYKVILGAHQEVNLEPHVQEIEVSRLFLEPTRKDIALLKLSSPAVITDKVIPACLPSPNYVVADRTECFITGWGETQGTFGAGLLKEAQLPVIENKVCNRYEFLNGRVQSTELCAGHLAGGTDSCQGDSGGPLVCFEKDKYILQGVTSWGLGCARPNKPGVYVRVSRFVTWIEGVMRNN
# notes: also called Plg
# Assays:
# [1] = biological target: B3; test: pull-down with IAPP fibrils, Western blot
# Description: (§1) Conditioned medium was used for pull-down assays using Aβ and IAPP fibrils, followed by Western blot analyses.
# [2] = biological target: T4, human amyloid-β peptide Aβ(1-40) (human); test: pull-down with Aβ fibrils, Western blot
# T4 construct: also called hAβ(1-40); amyloid-β(1-40)
# Protocol: “Control,” medium before the pull-down, “Aβ,” washed amyloid Aβ pellet, after the pull-down, “Sup,” medium after extraction with Aβ. […] MΔIAPP was coated as non-amyloid negative control (Panel E). […] The same sections were incubated with Congo red (Panels I, K, and M) to locate amyloid deposits. Panels N and O: Pull-down assay with insoluble Aβ fibrils and finger domains. […] “Control,” medium before the pull-down, “Aβ,” washed amyloid Aβ pellet, after the pull-down, “Sup,” medium after extraction with Aβ.
# as §1
# [3] = biological target: T1, human factor XII (Hageman factor); test: ELISA, coated peptide, FXII overlaid
# Description: Ten μg of the peptides that contain cross-β structure, as well as the negative control peptide mΔIAPP and phosphate-buffered saline (PBS), were spotted in duplicate.
# Wells were coated in triplicate. […] Ten μg of the peptides that contain cross-β structure, as well as the negative control peptide MΔIAPP and phosphate-buffered saline (PBS), were spotted in duplicate onto methanol-activated nitrocellulose.
# [4] = biological target: T2, tPA-F-EGF-GST (finger and EGF domains …); test: ELISA, 25 µg/ml peptide immobilized, excess εACA
# [5] = biological target: T5, recombinant tissue-type plasminogen activator (tPA) (human, UniProt P00750 36-562); test: ELISA, 25 µg/ml peptide immobilized
# T5 construct: Commercial full-length recombinant tPA; also called Alteplase; Actilyse
# [6] = biological target: T6, Fn F4-5-GST (finger domains 4-5 of human fibronectin with C-terminal GST tag) (human; Schistosoma japonicum, UniProt P02751 182-276); test: ELISA, immobilized peptide
# T6 construct: domain: fibronectin type I domains 4-5; Printed in places as Fn F4-S-GST (a misprint of F4-5); also called Fn F4-S-GST; fibronectin F4-5; not shown: (G)RP vector residues and thrombin cleavage site; Schistosoma japonicum glutathion-S-transferase (GST) tag
# [7] = biological target: T5, recombinant tissue-type plasminogen …; test: ELISA on Exiqon plates
# [8] = biological target: T2, tPA-F-EGF-GST (finger and EGF domains …); test: ELISA, 25 µg/ml peptide immobilized, excess εACA, anti-GST detection
# [9] = biological target: T3, tPA K1-GST (kringle 1 domain of human …); test: pull-down with IAPP fibrils, Western blot
# Description: as §1
# [10] = biological target: T5, recombinant tissue-type plasminogen …; test: ELISA, 25 µg/ml peptide immobilized on Exiqon plates
# [11] = biological target: T4, human amyloid-β peptide Aβ(1-40); test: ELISA, Aβ coated, plasminogen overlaid
# T4 sequence (peptide, as listed by the source): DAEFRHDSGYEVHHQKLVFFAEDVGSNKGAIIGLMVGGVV
# T6 sequence (P02751 182-276, tags left off): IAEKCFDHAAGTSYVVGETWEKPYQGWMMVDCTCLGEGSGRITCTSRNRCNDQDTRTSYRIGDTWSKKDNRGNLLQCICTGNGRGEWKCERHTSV
binder,measurement,setting,value
B1,binding result,[1],no binding
same,binding result,[2],no binding
B2,binding result,[3],no binding
same,binding result,[4],no binding
same,binding result,[5],no binding
B3,binding result,[6],binds
same,Kd,[7],6 nM
same,Kd,[8],13 nM
same,binding result,[9],no binding
same,Kd,[10],2 nM
B4,binding result,[11],no binding
